Measurements from patent US20220308061A1.

Target: NY-ESO-1 peptide presented in the stimulated PBMC culture
Assay: cell-based or functional assay

percent of CD8+ T cells CD137+/NGFR+ after antigen stimulation (% of CD8+ T cells): 0.69
percent of CD8+ T cells IFNγ+/NGFR+ after antigen stimulation (% of CD8+ T cells): 0.47
percent of CD8+ T cells TNFα+/NGFR+ after antigen stimulation (% of CD8+ T cells): 0.41
Substance: NY-ESO TCR (clone 1G4)
